In patent US11571480B2, “Multi-ligand drug conjugates and uses thereof” (priority 2015, dated 2023):
Numbered stars: 1 amine (or outer) side, 2 acyl side, 3 side chain; on linkers, the order of the positions; unused ones are H or OH. Bridge positions count the residues as written; N and C are the ends. Square brackets hold non-standard residues; d marks the D form. Peptide text beside a SMILES is read from it. I, II: the chains in the order shown. * marks the point of attachment. Hexanoyl(6-succinimido-3yl) = O=C1CC([*:1])C(=O)N1CCCCCC(=O)[*:2]; Pteroyl = Nc1nc2ncc(CNc3ccc(C(=O)*)cc3)nc2c(=O)[nH]1; Dolaproine = CO[C@@H]([C@@H]1CCCN1)[C@@H](C)C(=O)O; Dil = CC[C@H](C)[C@H](NC)[C@@H](CC(=O)O)OC; γGlu = O=C(O)[C@H](CCC(=O)[*:2])N[*:1]; PABC = O=C(OCc1ccc(N[*:1])cc1)[*:2]; X1 = C[C@@H](N*)[C@@H](O)c1ccccc1; Cit = NC(=O)NCCC[C@H](N)C(=O)O; NMeV = CN[C@H](C(=O)O)C(C)C

Tests used:
[1] = tested on: chronic myeloid leukemia cell line K562; test: Cytotoxicity test of conjugate LDC10B; assay type: cell-based; conditions: K562, Incubation Time 30 min
Description: (§1) Culture medium: RPMI 1640 Medium, no folic acid
(§2) 1) human nasopharyngeal cancer cell line KB, melanoma cell line A375, human lung cancer cell H1299, chronic myeloid leukemia cell line K562, human lung cancer cell H460, ovarian cancer cell SKOV3, breast cancer cell line HCC1954, human gastric cancer cell N87, and human breast cancer cell SK-BR-3 were incubated at 37° C., 5% CO2 in RPMI 1640 medium containing 10% fetal bovine serum, the cells were passaged every 2-3 days.
(§3) 2) human nasopharyngeal cancer cell line KB, melanoma cell line A375, human lung cancer cell H1299, chronic myeloid leukemia cell line K562, human lung cancer cell H460, ovarian cancer cell SKOV3, breast cancer cell line HCC1954, human gastric cancer cell N87, and human breast cancer cell SK-BR-3 were plated at 1×10^3 cells per well (96-well plate) and incubated for 8-12 h at 37° C., 5% CO2.
(§4) 3) Stock solutions of LDC conjugates or controls were prepared in PBS solution. 100 μL/well of serially diluted LDC conjugates or controls was added to the test cells in the plates and incubated for 15-30 min at 37° C., 5% CO2. The culture medium in the wells was then removed by aspiration and the test cells were incubated in fresh culture medium without conjugates (150 μL/well) for 2-3 days at 37° C., 5% CO2.
(§5) 4) CellTiter 96® Aqueous One Solution Cell Proliferation Assay (Promega) was added to each well to measure the amount of […] cells, and each plate was incubated in an incubator for 1 h at 37° C., 5% CO2.
(§6) 5) Each plate was read at 490 nm on a microplate reader, and the cell survivals were compared for test cells with or without the treatment of LDC conjugates. The LDC drug concentrations that are required for 50% cell death (IC50 values) were determined.

[2] = tested on: human breast cancer cell SK-BR-3; test: Cytotoxicity test of conjugate LDC10B; assay type: cell-based; conditions: SK-BR-3, Incubation Time 30 min
Description: as §1, §2, §3, §4, §5, §6

[3] = tested on: human gastric cancer cell N87; test: Cytotoxicity test of conjugate LDC10B; assay type: cell-based; conditions: N87, Incubation Time 30 min
Description: as §1, §2, §3, §4, §5, §6

[4] = tested on: human lung cancer cell H1299; test: Cytotoxicity test of conjugate LDC10B; assay type: cell-based; conditions: H1299, Incubation Time 30 min
Description: as §1, §2, §3, §4, §5, §6

[5] = tested on: human lung cancer cell H460; test: Cytotoxicity test of conjugate LDC10B; assay type: cell-based; conditions: H460, Incubation Time 30 min
Description: as §1, §2, §3, §4, §5, §6

[6] = tested on: human nasopharyngeal cancer cell line KB; test: Cytotoxicity test of conjugate LDC10B; assay type: cell-based; conditions: Incubation Time 15 min
Description: as §1, §2, §3, §4, §5, §6

melanoma cell line A375 [7] = test: Cytotoxicity test of conjugate LDC10B; assay type: cell-based; conditions: A375, Incubation Time 15 min
Description: as §1, §2, §3, §4, §5, §6

[8] = tested on: breast cancer cell line HCC1954; test: Cytotoxicity test of conjugate LDC10B; assay type: cell-based, human; conditions: HCC1954, Incubation Time 30 min
Description: as §1, §2, §3, §4, §5, §6

[9] = tested on: ovarian cancer cell SKOV3; test: Cytotoxicity test of conjugate LDC10B; assay type: cell-based, human; conditions: SKOV3, Incubation Time 30 min
Description: as §1, §2, §3, §4, §5, §6

[10] = tested on: human lung cancer cell H460; test: Cytotoxicity test of conjugate LDC10BR; assay type: cell-based; conditions: H460, incubated 15-30 min, then 2-3 days
Description: as §1
(§7) 1) human nasopharyngeal cancer cell line KB, melanoma cell line A375, and human lung cancer cell H460 were incubated at 37° C., 5% CO2 in RPMI 1640 medium containing 10% fetal bovine serum, the cells were passaged every 2-3 days.
(§8) 2) human nasopharyngeal cancer cell line KB, melanoma cell line A375, and human lung cancer cell H460 were plated at 1×10^3 cells per well (96-well plate) and incubated for 8-12 h at 37° C., 5% CO2.
(§9) 3) Stock solutions of LDC conjugates or control were prepared in PBS solution. 100 μL/well of serially diluted LDC conjugates or control was added to the cells in the plate and incubated for 15-30 min at 37° C., 5% CO2. The culture medium in the wells was then removed by aspiration and the cells were incubated in fresh culture medium without conjugates (150 μL/well) for 2-3 days at 37° C., 5% CO2.
(§10) 4) CellTiter 96® Aqueous One Solution Cell Proliferation Assay (Promega) was added to each well to measure the amount of […] cells, and the plate was incubated in an incubator for 1 h at 37° C., 5% CO2.
(§11) 5) the plate was read at 490 nm on a microplate reader, and the cell survivals were compared for cells with or without the treatment of LDC conjugates. The LDC drug concentrations that are required for 50% cell death (IC50 values) were determined.

[11] = tested on: human nasopharyngeal cancer cell line KB; test: Cytotoxicity test of conjugate LDC10BR; assay type: cell-based; conditions: incubated 15-30 min, then 2-3 days
Description: as §1, §7, §8, §9, §10, §11

melanoma cell line A375 [12] = test: Cytotoxicity test of conjugate LDC10BR; assay type: cell-based; conditions: A375, incubated 15-30 min, then 2-3 days
Description: as §1, §7, §8, §9, §10, §11

Transplanted H460 tumor = test: Inhibitory assay of conjugates LDC10B and LDC10H against xenograf tumors; assay type: in vivo, nude mice
Description: (§12) Animal: nude mice, aged 6-8 weeks, female
(§13) 1) human large cell lung cancer cell H460, human lung cancer cell A549, ovarian cancer cell SKOV3, and breast cancer cell line HCC1954 were incubated at 37° C., 5% CO2 in IMDM medium containing 10% fetal bovine serum, the cells were passaged every 2-3 days.
(§14) 2) generation of tumors: 7×10^6 tumor cells were injected subcutaneously into the back of nude mice, and the mice were grouped for treatment after the tumor sizes were as large as about 100-200 mm^3.
(§15) 3) treatment: 3 mice/group, treated with LDC10B, LDC10H, as well as controls MMAE and PBS with doses of 5 and 10 mg/kg every 5 days, three injections.
(§16) 4) the physical performance, body weights and tumor sizes of the animals were monitored. The number of animal death was recorded during the experiment.

[13] = tested on: Transplanted HCC1954 tumor; test: as above; assay type: in vivo, nude mice; conditions: 10 mg/kg
Description: as §12, §13, §14, §15, §16

Transplanted SKOV3 tumor = test: as above; assay type: in vivo, nude mice; conditions: 10 mg/kg
Description: as §12, §13, §14, §15, §16

[14] = Detection of conjugate concentrations in xenograf tumor models (serum, anti-MMAE ELISA); assay type: in vivo, nude mice; conditions: 10 mg/kg, peritoneal injection
Description: as §12
1) Human ovarian cancer cell SKOV3 and breast cancer cell line HCC1954 were incubated at 37° C., 5% CO2 in IMDM medium containing 10% fetal bovine serum, the cells were passaged every 2-3 days.
2) generation of tumors: 7×10^6 tumor cells were injected subcutaneously into the back of nude mice, and the mice were grouped for treatment after the tumor sizes were as large as about 100˜200 mm^3.
3) treatment: 3 mice/group, 10 mg/kg, peritoneal injection.
4) blood collection: the time for blood collection before treatment was set as 0, blood was collected at 20 min, 2 h, 4 h, and 24 h after treatment. The blood was centrifuged to collect serum, which was frozen and preserved.
5) Detection: the total amount of MMAE, LDC10B, LDC10H, as well as the MMAE metabolites of LDC10B and LDC10H in serum were detected by mice anti-MMAE ELISA kit.

Question: With CC[C@H](C)[C@@H]([C@@H](CC(=O)N1CCC[C@H]1[C@H](OC)[C@@H](C)C(=O)N[C@H](C)[C@@H](O)c1ccccc1)OC)N(C)C(=O)[C@@H](NC(=O)[C@H](C(C)C)N(C)C(=O)OCc1ccc(NC(=O)[C@H](CCCNC(N)=O)NC(=O)[C@@H](NC(=O)CCCCCN2C(=O)CC(SC[C@H](NC(=O)CC[C@H](NC(=O)c3ccc(NCc4cnc5[nH]c(N)nc(=O)c5n4)cc3)C(=O)O)C(=O)N[C@@H](CCCCN)C(=O)N[C@@H](CCC(=O)O)C(=O)N[C@@H](Cc3ccccc3)C(=O)N[C@@H](CC(C)C)C(=O)N[C@@H](Cc3c[nH]cn3)C(=O)N3CCC[C@H]3C(=O)N[C@@H](CO)C(=O)N[C@@H](CCCCN)C(=O)N[C@H](C(=O)N[C@@H](CC(=O)O)C(=O)N[C@@H](CC(C)C)C(=O)N3CCC[C@H]3C(=O)N[C@@H](CCCNC(=N)N)C(=O)O)C(C)C)C2=O)C(C)C)cc1)C(C)C (stereo partly shown) [LDC10B] (I: {Pteroyl-γGlu}-CKEFLHPSKVDLPR-OH / II: V[Cit][PABC][NMeV]V[Dil][Dolaproine]-X1; linker I:1-II:N via Hexanoyl(6-succinimido-3yl)) as the molecule, how does the IC50 [1] read?
Answer: Its IC50 is 14.8 nM.

Question: What about the IC50 [2] of the same molecule?
Answer: The IC50 was 15.9 nM.

Question: And the IC50 [3]?
Answer: The IC50 was 75.1 nM.

Question: What about the IC50 [4] of the same molecule?
Answer: The IC50 was 58.8 nM.

Question: What about the IC50 [5] of the same molecule?
Answer: The IC50 was 50.4 nM.

Question: And the IC50 [6]?
Answer: The IC50 was 760 nM.

Question: What about the IC50 (melanoma cell line A375 [7]) of the same molecule?
Answer: The IC50 was 10 µM.

Question: What about the IC50 [8] of the same molecule?
Answer: The IC50 was 14.1 nM.

Question: And the IC50 [9]?
Answer: Its IC50 is 15.7 nM.

Question: And the IC50 [10]?
Answer: The IC50 was 6.8 µM.

Question: And the IC50 [11]?
Answer: The IC50 was 2200 nM.

Question: What about the IC50 (melanoma cell line A375 [12]) of the same molecule?
Answer: The IC50 was 51.3 µM.

Question: What about the “Body weight of mice” value (Transplanted H460 tumor; 5 mg/kg, Before Injection) of the same molecule?
Answer: The value was 23.13 g.

Question: And the “Body weight of mice” value (Transplanted H460 tumor; 5 mg/kg, Five days after Injection 1)?
Answer: Its value is 22.53 g.

Question: And the “Body weight of mice” value (Transplanted H460 tumor; 5 mg/kg, Five days after Injection 2)?
Answer: Its value is 22.26 g.

Question: And the “Body weight of mice” value (Transplanted H460 tumor; 5 mg/kg, Five days after Injection 3)?
Answer: Its value is 21.65 g.

Question: What about the “Body weight of mice” value (Transplanted H460 tumor; 10 mg/kg, Before Injection) of the same molecule?
Answer: Its value is 22.51 g.

Question: What about the “Body weight of mice” value (Transplanted H460 tumor; 10 mg/kg, Five days after Injection 1) of the same molecule?
Answer: Its value is 22.53 g.

Question: And the “Body weight of mice” value (Transplanted H460 tumor; 10 mg/kg, Five days after Injection 2)?
Answer: Its value is 23.37 g.

Question: What about the “Body weight of mice” value (Transplanted H460 tumor; 10 mg/kg, Five days after Injection 3) of the same molecule?
Answer: The value was 23 g.

Question: What about the “Body weight of mice” value ([13]; Before Injection) of the same molecule?
Answer: The value was 21.85 g.

Question: What about the “Body weight of mice” value ([13]; Five days after Injection 1) of the same molecule?
Answer: The value was 22.2 g.

Question: And the “Body weight of mice” value ([13]; Five days after Injection 2)?
Answer: Its value is 22.55 g.

Question: And the “Body weight of mice” value ([13]; Five days after Injection 3)?
Answer: The value was 22.38 g.

Question: What about the “Body weight of mice” value (Transplanted SKOV3 tumor; Before Injection) of the same molecule?
Answer: The value was 22.96 g.

Question: What about the “Body weight of mice” value (Transplanted SKOV3 tumor; Five days after Injection 1) of the same molecule?
Answer: Its value is 22.44 g.

Question: And the “Body weight of mice” value (Transplanted SKOV3 tumor; Five days after Injection 2)?
Answer: The value was 23.23 g.

Question: And the “Body weight of mice” value (Transplanted SKOV3 tumor; Five days after Injection 3)?
Answer: Its value is 23.53 g.

Question: What about the Concentration in serum ([14]; 20 min) of the same molecule?
Answer: Its Concentration in serum is 10.8 µg/mL.

Question: And the Concentration in serum ([14]; 2 h)?
Answer: Its Concentration in serum is 5.035 µg/mL.

Question: And the Concentration in serum ([14]; 4 h)?
Answer: Its Concentration in serum is 0.53 µg/mL.

Question: And the Concentration in serum ([14]; 24 h)?
Answer: The Concentration in serum was 0.1179 µg/mL.

Question: What about the “detected in serum at 24 h after treatment (in words)” value ([14]; 24 h) of the same molecule?
Answer: Its value is “Trace amount”.

Question: And the Concentration in serum ([14]; Before Treatment)?
Answer: The Concentration in serum was 0 µg/mL.
